Measurements: paper PMC6057844 (Biochemical and biophysical research communications, 2018)

Molecular target: the molecule itself

B1: Drp1 in HD mouse striatal cells (natural protein, UniProt Q8K1M6 1-736, looked up)
chain: MEALIPVINKLQDVFNTVGADIIQLPQIVVVGTQSSGKSSVLESLVGRDLLPRGTGVVTRRPLILQLVHVSPEDKRKTTGEENGVEAEEWGKFLHTKNKLYTDFDEIRQEIENETERISGNNKGVSPEPIHLKVFSPNVVNLTLVDLPGMTKVPVGDQPKDIELQIRELILRFISNPNSIILAVTAANTDMATSEALKISREVDPDGRRTLAVITKLDLMDAGTDAMDVLMGRVIPVKLGIIGVVNRSQLDINNKKSVTDSIRDEYAFLQKKYPSLANRNGTKYLARTLNRLLMHHIRDCLPELKTRINVLAAQYQSLLNSYGEPVDDKSATLLQLITKFATEYCNTIEGTAKYIETSELCGGARICYIFHETFGRTLESVDPLGGLNTIDILTAIRNATGPRPALFVPEVSFELLVKRQIKRLEEPSLRCVELVHEEMQRIIQHCSNYSTQELLRFPKLHDAIVEVVTCLLRKRLPVTNEMVHNLVAIELAYINTKHPDFADACGLMNNNIEEQRRNRLARELPSAGSRDKSSKVPSALAPASQEPPPAASAEADGKLIQDNRRETKNVPSAGGGIGDGGQEPTTGNWRGMLKTSKAEELLAEEKSKPIPIMPASPQKGHAVNLLDVPVPVARKLSAREQRDCEVIERLIKSYFLIVRKNIQDSVPKAVMHFLVNHVKDTLQSELVGQLYKSSLLDDLLTESEDMAQRRKEAADMLKALQGASQIIAEIRETHLW
stoichiometry N: 4
